B1: TPR t1 (parent)
chain: GACCAAUCUGCCCUCAGAGCUCGAGAACAUCUUCGGAUGCAGAGGAGGCAGGCUUCGGUGGCGCGAUAGCGCCAACGUCCUCAACCUCCAAUGCAUCCCACCACAUGAUGAUGCCUGAAGAGCCUUGGUUUUUUG

Variants of: B1
Experiment: polymerase ribozyme fitness, log enrichment relative to wild type (log ratio); higher = more active; in vitro selection for triplet polymerase activity
In short: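 After PCR construction and transcription, each subunit's mutant library from a heterodimeric triplet polymerase ribozyme was annealed with a biotinylated primer, the partner subunit and triplets. Incubation was frozen, at −7 °C, and extended constructs were gel-excised, bound to streptavidin beads and amplified by RT-PCR, in one selection round done in triplicate. Fitness is the logarithm of a genotype's enrichment divided by that of the wild type, from inverse-variance-weighted replicate averages of Illumina-sequenced inputs and outputs. The base of the logarithm is 2, and genotypes needed ≥10 input reads and ≥1 read per output.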

Going from GACCAAUCUGCCCUCAGAGCUCGAGAACAUCUUCGGAUGCAGAGGAGGCAGGCUUCGGUCGCGCGAUAGCGCCAACGUCCUCAACCUCCAAUGCACCCCACCAUAUGAUGAUGCCUAAAGAGCCUUGGUUUUUUG to GACCAAUCUGCCCUCAGAGCUCGAGAACAUCUUCGGAUGCAGAGGAGGCAGGCUUCGGUGGCGCGAUAGCGCCAACGUCCUCAACCUCCAAUGCAUCCCAUCACAUCAUGAUGCCUGAAGAGCCUUGGUUUUUUG, the “polymerase ribozyme fitness (log ratio)” value falls from -2.83 to -6.63.

First: GACCAAUCUGCCCUCAGAGCUCGAGAACAUCUUCGGAUUCAGAGGAGGCAGGCUUCGGUGGCGCGAUAGCGCCAACGUCCUCAACCUCCAAUGCAUCCCACCACAUGAUGAUGCCUUCAGAGCCUUGGUUUUUUG
Second: GACCAAUCUGCCCUCAGAGCUCCAGAACAUCUUCGGAUGCAGAGGAGGCAGGCUUCGGUGGCGCGAUAGGGCCAACGUCCUCAACCUCCAAUGCAUCCCACCACAUGAUGAUGCCUGAAGAGCCUUGGUUUUUUG
The “polymerase ribozyme fitness (log ratio)” value of the first is higher: -4.29 for the first, -7.47 for the second.

First: GACCAAUGUGCCCUCAGAGCUCGAGAACAUCUUCGGAUGCAGAGGAGGCAGGGUUUGGUGGCGCGAUAGCGCCAACGUCCUCAACCUCCAAUCCAUCCCACCACAUGAUGAUGCCUGAAGAGCCUUGGUUUUUUG
Second: GACCAAUCUGCCCUCAGAGCUCGAGAACAUCUUCGGAUGCAGAGGAGGCAGGCUUCGGUGUCGCGAUAGCGCCAACGUCCUCAACCUCCAAUGCAACCCACCACAUGAUGAUGCCUGAAGAGCCUUGGUUUUUUG
The “polymerase ribozyme fitness (log ratio)” value of the first is higher: 0.798 for the first, -0.797 for the second.

First: GACCAAGCUGCCCUCAGAGCUCGAGAACAUCUUCGGAUGCAGAGGAGGCAGGCUUCGGUGGCGCGAUAGCGCCAACGUCCUCAUCCUCCAAUGCAUCCCACCACAUGAUGAUGCCUGAAGAGCCUUAGUUUUUUG
Second: GACCAAUCUGCCCUCAGAGCUCGAGAACAUCUUCGGAUCCAGAGGAGGGAGGCUUCGGUGGCGCGAUAGCGCCAACUUCCUCAACCUCCAAUGAAUCGCACUACAUGAUGAUGCCUGAAGAGACUUGGUUAUUUG
The “polymerase ribozyme fitness (log ratio)” value of the first is higher: -0.135 for the first, -5.44 for the second.

First: GACCAAUCUGCCCUCAGAGCUCGAGAACAUCUUCGGAUGCAGAGGAGGCAGGCUUCGGUGGCGCGAUAGCGCCAACGUCCUCAAGCUCCAAUGUAUUCCACCACAUGAUGAUGCCUGAACAGCCUUGGUUUUUUG
Second: GACCAAUCUGCCCUCAGAGCUCGAGAACAUCUUCGGAUGCAGAGGAGGUAGGUUUCGGUGGCGCGAUAGCGCCAACGUCCUCAACCUCUAAUGCAUCCCACCACAUGAUGAUGCCUGAAGAGCCUUGGUUUUUUG
The “polymerase ribozyme fitness (log ratio)” value of the first is lower: -0.74 for the first, -0.369 for the second.

GACCAAUCUGCCCUCAGAGCUCGAGAACAUCUUCGGAUGCAGAGGAGGCAGGUUUCGGUGGCGCGAUAGCGCCAACGUCCUCAACCUCCAAUGAAUCCCACCACAUGAUGAUGCCUGAAGAGCCUUGGCUUUUUG and GACCAAUCUGCCCUCAGAGCUCGAGAACAUCUUCGGAUGCAGAGGAGGCAGGCUUCGGUGGCGCGAUAGUGCCAACGUCCUCAAACUCCAAUGCAUCCCACCACAUGAUGAUGCCUGAAGAGCCUUGGUUUUUUG are within 0.2 log units of each other in “polymerase ribozyme fitness (log ratio)” value: -1.99 for the first, -2.12 for the second.

Compared with GACCAAUCUGCCCUCAGAGCUCGAGAACAUCUUCGGAUACAGAGGAGGCAGGCUUCGGUGGCGCGAUAGCGCCAACGUCCUCUACCUCCAAUGCAUCCCACCACAUGAUGAUGCCUGAAGAGCCUUGGUUUUUUG, GACCAAUCAGCCCUCAGAGCUCGAGAACAUCUUCGGAUGCAGAGGAGGCAGGCUUCGGUGGCGCGAUAGCGCCAACGUCCUCAACCUCCACAGCAUCCCACCAUAUGAUGAUGCCUGAAGAGCCUUGGUUUUUUG is lower in “polymerase ribozyme fitness (log ratio)” value: -0.65 for the first, -2.18 for the second.

First: GACCAAUCUGCCCACAGAGCUCGAGAACAUCUUCGGAUGCAGAGGAGGCAGUCUUCGGUGGCGCGAUAGCGUCAACGUCCUCAACCUCCAAUGCAUCCCACCACAUGAUGAUGCCCGAAGAUCCUUGGUUUUUUG
Second: GACCAAUCUGCCCUCAGAGCUCGAGAACAUCUUCGGAUGUAGAGGAGGCAGGCUUCGGUGGCGCGAUUACGCCAACGUCCUCAACCUUCAAUACAUCCCACCACAUGAUGAUGCCUGAAGAGCCUUGGUUUUAUG
The “polymerase ribozyme fitness (log ratio)” value of the first is higher: -4.11 for the first, -6.63 for the second.

First: GACCAAUCUGCCCUCAGAGCUCGAGAACAUCUUCGGAUGCAGAGGAGGCAGGCUUCGGUGGCGCGAUAGCGCCAACGUCCUCAACCUCCAAUGCAUCCCACCACAUGAUGACGCCAGAAGAGCCUUGGUUUUUUG
Second: GACCAAUCUGUCUUCAGAGCUGGAGAACAUCUUCGGAUGCAGAGGAGGCAGGCUUCGGUGGCGCGAUAGCGCCAACGUCCUAAACCUCCAAUGCAUCCCACCACAUGAUGAUGCCUGAAGAGCCUUGGUUUUUUG
The “polymerase ribozyme fitness (log ratio)” value of the first is higher: -1.02 for the first, -4.12 for the second.

Going from GACCAAUCUGCCCUCAGAGCUCGAGAGCAUCUUCGGAUGCAGAGGAGGCAGGCUUCGGUGGCGUGAUAGCGCUAACGUCCUCAACCUCCAAUGCAUCCCACCACAUGAUGAUGCCUGAAGAGCCUUGGUUUUUUG to GACCAAUCUGCCCUCAGAGCUCGAGAACAUCUUCGGAUGCAGAGGAGUCAGGCUUCGGUGGCGCGAUAGCGCCAACGUCCUCAACCUCCAAUGCAUCCCACUACAUGAUGAUGCCUGAAGAGCCUUGGUUUUUUG, the “polymerase ribozyme fitness (log ratio)” value falls from -2.48 to -3.66.

GACCAAUCUGCCCUCAGAGCUCGAGAACAUCUUCGGAUGCAGAGGAGGCAGGCUUCGGUGGCGCGAUAGCGCCAACGUCCUCAGCAUCCAAUGCACCCCACCACAUGAUGAUACCUGAAGAGCCUUGGUUUUUUG and GACCAAUCUACCCUCAGAGCUCGAGAACAUCCUCGGAUGCAGAGGAGGCAGGCUUCGGUGGCGCGAUAGCGGCAACGUCCUCAACCACCAAUGCAUCCCACCACAUGAUGAUGCCUGAAGAGCCUUGGUUAUUUG are within 0.2 log units of each other in “polymerase ribozyme fitness (log ratio)” value: -2.94 for the first, -2.99 for the second.

Going from GACCAAUCUGCCCUCAGAGCUCGAGAACAUCUUCGGAUGCAGAGGAGGCAGGCUUCGGUGGCGCGAUAGCGCCAACGUCCUCAACAUCCAAUGCAUCCCAUCACAUGAUGAUGCCUGAAGAGCCUUGGUUUUUUG to GACCAAUCUGCCCUCAGAGCUCGAGAACAUCUUCGGAUGCAGAGGAGGCAGGCUUAGGUGGCGCGAUAGCGCCAACGUCCUCAACCUCCAAUGCAUCCCAGCACAUGAUGAUGCCUGAAGAGCCUUGGUUUUUUG, the “polymerase ribozyme fitness (log ratio)” value falls from -0.0895 to -1.76.

First: GACCAAUCUGCACUCAGAGCUCGAGAACAUCUUCGGAUGCAGAGGAGGCAGGCUUCGGUGGCGCGAUAGCGCCAACGUCCUCAACCUCGAAUACAUCCCACCACAUGAUGAUGCCUGAAGAGCCUUGGUUUUUUG
Second: GACCAAUCUGCCCUCAGAGCUCGAGAACAUCUUCGGAUGCAGAGGAGGCAGGCUUCGGUGGCGCGAUAUCGCCAACGUCCUCAACCUCCAAUGCAUCCCACCAUAUGAUGAUGCCUGAAGAGCCUUGGUUUUUUG
The “polymerase ribozyme fitness (log ratio)” value of the first is lower: -2.86 for the first, 0.349 for the second.

Compared with GACCAAUGCGCCCUCAGAGCUCGAGAACAUCUUCGGAUGCCGUGGAGGCAGACUUCGGUGGCGCGAUAGCGCCAACGUCCUCAACCUCCAAUGCAUCCCACCACAUGAUGAAGCCUGAAGAGCCUUGGUUUUUUG, GACCAGUCUGCCCUCAGAGCUCGAGAACAUCUUCGGAUGCAGAGGAGGCAGGCUUCGGUGGUGCGAUAGCGCCAACGUCCUCAACCUCCAAUGCAUCCCACCACAUGAUGAUGCCUGAAGAGCCUUGGCUUUUUG is higher in “polymerase ribozyme fitness (log ratio)” value: -0.712 for the first, -0.185 for the second.

GACCAAUCUGCCUUCAGAGCUCGAGAACUUCUUCGGAUGCAGAGGUGGCAGGCUUAGGUGGCGCGAUAGCGCCAACGUCCUCAACCUCCAAUGCAUUCCACCACAUGAUGAUGCCUGAAGAGCCUUGGUUUUUUG and GACCAAUCUGCCCUCAGAGGUCGAGAACAUCUUCGGAUGCAGAGGAGGCAGGCUUCGGUAGCGCGAUAGCGCCAACGUCCUCAACCUCCAAUGCAUCCCACCACAUGAUGAUGCCUGAAGAGCCUUGGUUUUUUG are within 0.2 log units of each other in “polymerase ribozyme fitness (log ratio)” value: -3.44 for the first, -3.55 for the second.

First: GACCAAUCUGCCCUCAGAGCUCGAGAACAUCUUCGGAUGCAGAGGAGGAAGUCUUCGGUGGCGCGAUAGCGCCAACGUCCUCAACCUCCAAUGCAUCCCACCACUUGAUGAUGCCUGAAGAGCCUUGGUUUUUUG
Second: GACCAAUCUGCCCUCAGAGCUCGAGAACAUCUUCGGAUGCAGAGGAGGCAGGCUUCGGUGGCGCGAUAGCGCCAACAUCCUCAACCUCCAAUGCAUCCCACCACAUGAUGCUGCCUGAUGAGACUUGGUUCUUUG
The “polymerase ribozyme fitness (log ratio)” value of the first is lower: -3.88 for the first, -2.38 for the second.

First: GACCAAUCUGCCCUCAGAGCUCGAGAACAUCUUCGGAUGCAGAGGAGGCAGGCUUCGGUUGCGCGAUAGCGCCAACGUCCUCAACCUCCAAUGCAUCCCACCACAUGAUGAUGCCUGAAGAGCCUCGGUUUUUUG
Second: GACCAAUCUGCCCUCAGAGCUCGAGAACAUCUUCGGAUGCAGAGGAGGCAGGCUUCGGUGGCGCGAUAGCGCCAACGUCCUCAACCUCCAAUGCAUCCCACCACAUGAUGAUGCCUGAAGAGCCUUGGGUUUUUG
The “polymerase ribozyme fitness (log ratio)” value of the first is higher: -0.44 for the first, -1.1 for the second.

Going from GACCAAUCUGCACUCAGAGCUCGAGAACAUCUUCGGAUGCAGAGGAGGCAGGCUUCGGUGUCGCGCUAGCGCCAACGCCAUCAACCUCCAAUGCAUCCCACCACAUUAUGAUGUCUGAAGAGCCUUCGUUUUUUG to GACCAAUCUGCCCUCAGAGCUCGAGAACAUCUUCGGAGGCAGAGGAGGCAGGCGUCGGUGGCGCGAUAGCGCCAACGUCCUCAACCUCCAAUGCAUCCCACCACAUGAUGAUGCCUGAAGAGCCUUGGUUUUUUG, the “polymerase ribozyme fitness (log ratio)” value rises from -6.6 to -0.407.

First: GACCAACCUGCCCUCAGAGCUCGAGAACAUCUUCGGAUGCAGAGGAGGCAGGCUUCGGUGGCGCGAUAGCGGCAACGUCCUCACCCUCCAAUGCAUCCCACCACAUGAUGAUGCCUGAAGAGCCUUGGUUUUUUG
Second: GACCAAUCUGCCCUCAGAGCUCGAGAACAUCGUCGGAUGCAGAGGAGGCAGGCUUCGGUGGCGCGAUAGUGCCAACGUCCUCAACCUCCAAUGCAUCCCACCACAUGAUGAUGCCUGAAGAGCCUUGGUUUUUUG
The “polymerase ribozyme fitness (log ratio)” value of the first is higher: -0.576 for the first, -7.16 for the second.

First: GACCAAUCUGCCCUAAGAGCUCGAGAACAUCUUCGGAUGCAGAGGAGGCAGGCUUCGGUGGCGCGAUAGCGCCAACGUCCUCAACCUCCAAUGUAUCCCACCACAUGAUGAUGCCUGAAGAGCCUUGGUUUUUUG
Second: GACCAAUCUGCCCUCAGAGCUCGAGAACAUCUUCGGAUGCAGAGGAGGCAGGCUUCGGUGGCGCGAUAGCGCCAACGUCCUCAUCCUCCAAUUCAUCCCACCACAUGAUGAUGCCUGAAGAGCCUUGGUUUUUUG
The “polymerase ribozyme fitness (log ratio)” value of the first is lower: -1.87 for the first, -1.44 for the second.

Compared with GACCAACCUGCCAUCAGAGCUCGAGAACAUCUUCGGAUGCAGAGGAGGCAGGCUUCGGUGGCGCGAUAGCGGCAACGUCCUCAACCUCCAACGCAUCCCACCACAUGAUGAUGCCUGAAGAGCCUUGGUUUUUUG, GACCAAUCUGCCCUCAGAGCUCGAGAACAUCUUCGGAUGCAGAGGAGGCAGGCUUCGGUGGCGCGAUAGCGUCAACGACCUCAACCUCCAAUGCAUCCCACCACAUGAUGAUGCCUGAAGAGCCUUGGUUUUUUG is higher in “polymerase ribozyme fitness (log ratio)” value: -2.47 for the first, -1.19 for the second.

— the RNAGym collection of RNA variant scans (doi:10.1073/pnas.2313332121)
